Like-named read-outs stand apart in the source and are kept apart here. Bounds are passed on as bounds.

Assay [1] addresses T1, human sodium-dependent phosphate transporter 2B (NaPi2b) (human, UniProt O95436 1-690).
T1 construct: UniProt ID is given as 095436 [sic]; also called hNaPi2b; Hu NaPi2b
T1 sequence: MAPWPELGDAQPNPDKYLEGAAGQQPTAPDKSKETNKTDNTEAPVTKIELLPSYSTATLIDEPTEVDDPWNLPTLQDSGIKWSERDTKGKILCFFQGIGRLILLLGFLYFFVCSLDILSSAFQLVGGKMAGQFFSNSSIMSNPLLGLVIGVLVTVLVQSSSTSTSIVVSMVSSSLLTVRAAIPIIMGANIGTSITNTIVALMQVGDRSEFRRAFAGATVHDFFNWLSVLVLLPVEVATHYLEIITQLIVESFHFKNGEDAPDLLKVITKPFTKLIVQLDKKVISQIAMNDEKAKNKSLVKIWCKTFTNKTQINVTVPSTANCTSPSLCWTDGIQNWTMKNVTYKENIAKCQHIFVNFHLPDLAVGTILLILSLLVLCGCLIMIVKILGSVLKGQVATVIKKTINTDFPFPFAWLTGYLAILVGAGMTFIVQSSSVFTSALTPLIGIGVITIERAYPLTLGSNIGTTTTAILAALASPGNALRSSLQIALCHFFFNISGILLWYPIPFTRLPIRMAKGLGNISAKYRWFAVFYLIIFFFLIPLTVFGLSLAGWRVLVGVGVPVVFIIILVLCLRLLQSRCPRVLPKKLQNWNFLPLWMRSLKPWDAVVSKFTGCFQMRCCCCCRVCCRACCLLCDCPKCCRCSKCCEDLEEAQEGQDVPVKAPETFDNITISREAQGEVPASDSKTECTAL
Nature of the assay: flow cytometry, HEK293-6e cells transfected with human NaPi2b. How it is done:
(§1) The binding cross-reactivity of humanized antibody variant v29456 to human, cynomolgus and mouse NaPi2b was assessed by flow cytometry using HEK293-6e transfected cells.
(§2) Briefly, HEK293-6e cells were transfected for ˜24 hours to transiently express human NaPi2b, cynomolgus or mouse NaPi2b, at 1 μg of DNA per 1 million cells. Following transfection, 50,000 cells per well were seeded in V-bottom 96-well plates and incubated with 200 nM of primary antibody for 18-24 hours at 4° C. to prevent internalization. Post-incubation, cells were washed and stained with anti-Human IgG Fc AF647 conjugate (Jackson Immuno Research Labs, West Grove, PA, Cat. No. 109-605-098, Lot. No. 124868) at 4° C. for 1 hour. Following staining and washing, fluorescence was detected by flow cytometry on BD LSRFortessa™ Cell Analyzer (BD Biosciences, Franklin Lake, NJ) with 10,000 minimum events collected per well. The AF647/APC-A GeoMean (fluorescence signal geometric mean, proportional to anti-Human AF647 binding) was calculated for the live singlet cell population for each primary antibody using FlowJo™ v8 software (BD Biosciences, Franklin Lake, NJ). The Bmax and Kd of each primary antibody were calculated using GraphPad Prism Version 9 (GraphPad Software, San Diego, CA)

In assay [2] the target is T2, cynomolgus monkey NaPi2b (cynomolgus monkey, UniProt O95436 1-690 (human entry)).
T2 construct: Transiently expressed on HEK293-6e cells; also called Cyno NaPi2b
T2 chain: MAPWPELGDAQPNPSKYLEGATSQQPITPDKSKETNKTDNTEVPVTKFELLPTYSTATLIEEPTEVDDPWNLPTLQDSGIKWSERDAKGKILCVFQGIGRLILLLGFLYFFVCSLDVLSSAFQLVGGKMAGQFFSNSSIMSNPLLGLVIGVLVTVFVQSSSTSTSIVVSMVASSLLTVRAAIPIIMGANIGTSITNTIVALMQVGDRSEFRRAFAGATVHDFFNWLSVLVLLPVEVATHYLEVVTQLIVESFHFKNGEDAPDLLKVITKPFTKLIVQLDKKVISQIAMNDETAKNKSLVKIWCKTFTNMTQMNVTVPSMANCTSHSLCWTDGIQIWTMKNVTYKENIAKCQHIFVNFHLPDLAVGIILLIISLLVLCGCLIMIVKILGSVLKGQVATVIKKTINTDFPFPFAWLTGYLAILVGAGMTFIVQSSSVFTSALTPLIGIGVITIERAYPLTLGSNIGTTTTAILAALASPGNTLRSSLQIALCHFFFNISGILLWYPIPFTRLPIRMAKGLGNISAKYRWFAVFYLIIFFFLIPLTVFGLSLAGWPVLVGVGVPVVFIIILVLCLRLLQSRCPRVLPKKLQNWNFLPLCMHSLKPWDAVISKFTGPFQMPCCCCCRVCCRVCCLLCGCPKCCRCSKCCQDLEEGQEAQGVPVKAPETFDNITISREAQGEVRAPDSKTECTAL
Nature of the assay: flow cytometry, HEK293-6e cells transfected with cynomolgus NaPi2b. How it is done: as §1, §2

The target of assay [3] is T1, human sodium-dependent phosphate …. The experiment in a line: flow cytometry, HEK293-6e cells transfected with human NaPi2b; apparent Kd. How it is done:
as §1, §2

Assay [4] has the same target. The description is as above. On the procedure: The binding cross-reactivity of humanized antibody variant v38591 to human NaPi2b, NaPi2a, and NaPi2c was assessed by flow cytometry using HEK293-6e transfected cells.
Following transfection, cells were seeded at 50,000 cells/well in conical-bottom 96-well plates and treated with test antibody for 24 hours at 4° C. to prevent internalization. Following incubation, cells were washed and stained with anti-Human IgG Fc AF647 conjugate (Jackson Immuno Research Labs, West Grove, PA; Cat. No. 109-605-098) or anti-Rabbit IgG F(ab″)2 AF647 conjugate (Jackson Immuno Research Labs, West Grove, PA; Cat. No. 111-605-047). Following incubation and washing, fluorescence was detected by flow cytometry on a BD LSRFortessa™ Cell Analyzer (BD Biosciences, Franklin Lake, NJ) with 1,000 minimum events collected per well. The AF647/APC-A GeoMean (fluorescence signal geometric mean, proportional to anti-Human AF647 binding) was calculated for the live cell population using FlowJo™ Version 10.8.1 (BD Biosciences, Franklin Lake, NJ) and plotted for each test antibody using GraphPad Prism Version 9 (GraphPad Software, San Diego, CA).
The source holds these as a separate data set.

Assay [5] concerns the target T2, cynomolgus monkey NaPi2b. The experiment in a line: flow cytometry, HEK293-6e cells transfected with cynomolgus NaPi2b; apparent Kd. On the procedure:
as §1, §2

In the next assay the target is T3, mouse NaPi2b (mouse, UniProt Q9DBP0 1-697).
T3 construct: Transiently expressed on HEK293-6e cells; also called Ms NaPi2b
T3 sequence: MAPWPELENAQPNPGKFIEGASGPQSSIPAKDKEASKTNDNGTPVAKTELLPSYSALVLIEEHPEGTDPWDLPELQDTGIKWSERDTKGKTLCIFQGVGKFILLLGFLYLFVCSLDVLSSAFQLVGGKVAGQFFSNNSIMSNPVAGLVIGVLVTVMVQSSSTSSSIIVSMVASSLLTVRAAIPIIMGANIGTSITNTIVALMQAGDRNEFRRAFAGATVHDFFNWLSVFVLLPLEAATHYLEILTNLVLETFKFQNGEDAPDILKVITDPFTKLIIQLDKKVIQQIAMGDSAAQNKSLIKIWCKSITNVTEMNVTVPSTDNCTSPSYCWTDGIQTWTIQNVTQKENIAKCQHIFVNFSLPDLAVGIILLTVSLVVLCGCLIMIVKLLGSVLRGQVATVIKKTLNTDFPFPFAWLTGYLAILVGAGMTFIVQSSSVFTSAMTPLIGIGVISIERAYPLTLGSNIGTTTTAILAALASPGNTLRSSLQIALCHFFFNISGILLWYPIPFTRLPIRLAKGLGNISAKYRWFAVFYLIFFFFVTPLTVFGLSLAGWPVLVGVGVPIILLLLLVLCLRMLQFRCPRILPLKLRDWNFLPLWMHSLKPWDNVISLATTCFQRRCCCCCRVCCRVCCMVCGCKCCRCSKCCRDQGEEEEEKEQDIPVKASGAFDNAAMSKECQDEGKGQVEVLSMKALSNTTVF
Nature of the assay: flow cytometry, HEK293-6e cells transfected with mouse NaPi2b; apparent Kd above the highest concentration tested.

B1: v18992, reference anti-NaPi2b antibody MX35 (antibody, human IgG1, kappa)
heavy 1: GQVQLVQSGAEVVKPGASVKMSCKASGYTFTGYNIHWVKQAPGQGLEWIGAIYPGNGDTSYKQKFRGRATLTADTSTSTVYMELSSLRSEDSAVYYCARGETARATFAYWGQGTLVTVSSASTKGPSVFPLAPSSKSTSGGTAALGCLVKDYFPEPVTVSWNSGALTSGVHTFPAVLQSSGLYSLSSVVTVPSSSLGTQTYICNVNHKPSNTKVDKKVEPKSCDKTHTCPPCPAPELLGGPSVFLFPPKPKDTLMISRTPEVTCVVVDVSHEDPEVKFNWYVDGVEVHNAKTKPREEQYNSTYRVVSVLTVLHQDWLNGKEYKCKVSNKALPAPIEKTISKAKGQPREPQVYVYPPSRDELTKNQVSLTCLVKGFYPSDIAVEWESNGQPENNYKTTPPVLDSDGSFALVSKLTVDKSRWQQGNVFSCSVMHEALHNHYTQKSLSLSPG
heavy 2: not shown
light: GDIQMTQSPSSLSASVGDRVTITCSASQDIGNFLNWYQQKPGKTVKVLIYYTSSLYSGVPSRFSGSGSGTDYTLTISSLQPEDFATYYCQQYSKLPLTFGQGTKLELKRTVAAPSVFIFPPSDEQLKSGTASVVCLLNNFYPREAKVQWKVDNALQSGNSQESVTEQDSKDSTYSLSSTLTLSKADYEKHKVYACEVTHQGLSSPVTKSFNRGEC
On to B1, for which the “Bmax (APC-A GeoMean)” value in assay [1] was determined as 1900 APC-A GeoMean; in the assay with cynomolgus monkey NaPi2b [2], 2360 APC-A GeoMean. For the same molecule, the Kd in assay [3] is 1.98 nM; in assay [4] it was 1.51 nM; with cynomolgus monkey NaPi2b [5] it was 31 nM; with mouse NaPi2b it was greater than 200 nM.

The record behind these values is patent US20250277030A1 (Zymeworks, published 2025).
